Measured values: article PMC4139326, “Functional Roles of the Dimer-Interface Residues in Human Ornithine Decarboxylase” (PLoS ONE, 2014)

B1: human ornithine decarboxylase, wild type (enzyme)
chain: EEFDCHFLDEGFTAKDILDQKINEVSSSDDKDAFYVADLGDILKKHLRWLKALPRVTPFYAVKCNDSKAIVKTLAATGTGFDCASKTEIQLVQSLGVPPERIIYANPCKQVSQIKYAANNGVQMMTFDSEVELMKVARAHPKAKLVLRIATDDSKAVCRLSVKFGATLRTSRLLLERAKELNIDVVGVSFHVGSGCTDPETFVQAISDARCVFDMGAEVGFSMYLLDIGGGFPGSEDVKLKFEEITGVINPALDKYFPSDSGVRIIAEPGRYYVASAFTLAVNIIAKKIVLKEQTGSDDEDESSEQTFMYYVNDGVYGSFNCILYDHAHVKPLLQKRPKPDEKYYSSSIWGPTCDGLDRIVERCDLPEMHVGDWMLFENMGAYTVAAASTFNGFQRPTIYYVMSGPAWQLMQQFQNPDFPP
notes: ornithine decarboxylase (ODC), human; cDNA cloned into pQE30; Written as the protomer; it associates with itself to the dimer; also called ODC
B2: human ornithine decarboxylase Y331S/Y389D/R277S/D332E/D134A (enzyme)
chain: EEFDCHFLDEGFTAKDILDQKINEVSSSDDKDAFYVADLGDILKKHLRWLKALPRVTPFYAVKCNDSKAIVKTLAATGTGFDCASKTEIQLVQSLGVPPERIIYANPCKQVSQIKYAANNGVQMMTFASEVELMKVARAHPKAKLVLRIATDDSKAVCRLSVKFGATLRTSRLLLERAKELNIDVVGVSFHVGSGCTDPETFVQAISDARCVFDMGAEVGFSMYLLDIGGGFPGSEDVKLKFEEITGVINPALDKYFPSDSGVRIIAEPGSYYVASAFTLAVNIIAKKIVLKEQTGSDDEDESSEQTFMYYVNDGVYGSFNCILSEHAHVKPLLQKRPKPDEKYYSSSIWGPTCDGLDRIVERCDLPEMHVGDWMLFENMGADTVAAASTFNGFQRPTIYYVMSGPAWQLMQQFQNPDFPP
notes: ornithine decarboxylase (ODC), human; cDNA cloned into pQE30; also called [ODC_4M]+D134A
B3: human ornithine decarboxylase Y331S/Y389D/R277S/D332E/V322D/D134A (enzyme)
chain: EEFDCHFLDEGFTAKDILDQKINEVSSSDDKDAFYVADLGDILKKHLRWLKALPRVTPFYAVKCNDSKAIVKTLAATGTGFDCASKTEIQLVQSLGVPPERIIYANPCKQVSQIKYAANNGVQMMTFASEVELMKVARAHPKAKLVLRIATDDSKAVCRLSVKFGATLRTSRLLLERAKELNIDVVGVSFHVGSGCTDPETFVQAISDARCVFDMGAEVGFSMYLLDIGGGFPGSEDVKLKFEEITGVINPALDKYFPSDSGVRIIAEPGSYYVASAFTLAVNIIAKKIVLKEQTGSDDEDESSEQTFMYYVNDGDYGSFNCILSEHAHVKPLLQKRPKPDEKYYSSSIWGPTCDGLDRIVERCDLPEMHVGDWMLFENMGADTVAAASTFNGFQRPTIYYVMSGPAWQLMQQFQNPDFPP
notes: ornithine decarboxylase (ODC), human; cDNA cloned into pQE30; also called [ODC_4M]+[V322D/D134A]; sextuple mutant
B4: human ornithine decarboxylase D134A (enzyme)
chain: EEFDCHFLDEGFTAKDILDQKINEVSSSDDKDAFYVADLGDILKKHLRWLKALPRVTPFYAVKCNDSKAIVKTLAATGTGFDCASKTEIQLVQSLGVPPERIIYANPCKQVSQIKYAANNGVQMMTFASEVELMKVARAHPKAKLVLRIATDDSKAVCRLSVKFGATLRTSRLLLERAKELNIDVVGVSFHVGSGCTDPETFVQAISDARCVFDMGAEVGFSMYLLDIGGGFPGSEDVKLKFEEITGVINPALDKYFPSDSGVRIIAEPGRYYVASAFTLAVNIIAKKIVLKEQTGSDDEDESSEQTFMYYVNDGVYGSFNCILYDHAHVKPLLQKRPKPDEKYYSSSIWGPTCDGLDRIVERCDLPEMHVGDWMLFENMGAYTVAAASTFNGFQRPTIYYVMSGPAWQLMQQFQNPDFPP
notes: ornithine decarboxylase (ODC), human; cDNA cloned into pQE30
B5: human ornithine decarboxylase Y331S/Y389D/R277S/D332E (enzyme)
chain: EEFDCHFLDEGFTAKDILDQKINEVSSSDDKDAFYVADLGDILKKHLRWLKALPRVTPFYAVKCNDSKAIVKTLAATGTGFDCASKTEIQLVQSLGVPPERIIYANPCKQVSQIKYAANNGVQMMTFDSEVELMKVARAHPKAKLVLRIATDDSKAVCRLSVKFGATLRTSRLLLERAKELNIDVVGVSFHVGSGCTDPETFVQAISDARCVFDMGAEVGFSMYLLDIGGGFPGSEDVKLKFEEITGVINPALDKYFPSDSGVRIIAEPGSYYVASAFTLAVNIIAKKIVLKEQTGSDDEDESSEQTFMYYVNDGVYGSFNCILSEHAHVKPLLQKRPKPDEKYYSSSIWGPTCDGLDRIVERCDLPEMHVGDWMLFENMGADTVAAASTFNGFQRPTIYYVMSGPAWQLMQQFQNPDFPP
notes: ornithine decarboxylase (ODC), human; cDNA cloned into pQE30; also called ODC_4M
B6: human ornithine decarboxylase Y331S/Y389D/R277S/D332E/V322D (enzyme)
chain: EEFDCHFLDEGFTAKDILDQKINEVSSSDDKDAFYVADLGDILKKHLRWLKALPRVTPFYAVKCNDSKAIVKTLAATGTGFDCASKTEIQLVQSLGVPPERIIYANPCKQVSQIKYAANNGVQMMTFDSEVELMKVARAHPKAKLVLRIATDDSKAVCRLSVKFGATLRTSRLLLERAKELNIDVVGVSFHVGSGCTDPETFVQAISDARCVFDMGAEVGFSMYLLDIGGGFPGSEDVKLKFEEITGVINPALDKYFPSDSGVRIIAEPGSYYVASAFTLAVNIIAKKIVLKEQTGSDDEDESSEQTFMYYVNDGDYGSFNCILSEHAHVKPLLQKRPKPDEKYYSSSIWGPTCDGLDRIVERCDLPEMHVGDWMLFENMGADTVAAASTFNGFQRPTIYYVMSGPAWQLMQQFQNPDFPP
notes: ornithine decarboxylase (ODC), human; cDNA cloned into pQE30; also called [ODC_4M]+V322D
B7: human ornithine decarboxylase Y389D (enzyme)
chain: EEFDCHFLDEGFTAKDILDQKINEVSSSDDKDAFYVADLGDILKKHLRWLKALPRVTPFYAVKCNDSKAIVKTLAATGTGFDCASKTEIQLVQSLGVPPERIIYANPCKQVSQIKYAANNGVQMMTFDSEVELMKVARAHPKAKLVLRIATDDSKAVCRLSVKFGATLRTSRLLLERAKELNIDVVGVSFHVGSGCTDPETFVQAISDARCVFDMGAEVGFSMYLLDIGGGFPGSEDVKLKFEEITGVINPALDKYFPSDSGVRIIAEPGRYYVASAFTLAVNIIAKKIVLKEQTGSDDEDESSEQTFMYYVNDGVYGSFNCILYDHAHVKPLLQKRPKPDEKYYSSSIWGPTCDGLDRIVERCDLPEMHVGDWMLFENMGADTVAAASTFNGFQRPTIYYVMSGPAWQLMQQFQNPDFPP
notes: as for B4
B8: human ornithine decarboxylase R165E (enzyme)
chain: EEFDCHFLDEGFTAKDILDQKINEVSSSDDKDAFYVADLGDILKKHLRWLKALPRVTPFYAVKCNDSKAIVKTLAATGTGFDCASKTEIQLVQSLGVPPERIIYANPCKQVSQIKYAANNGVQMMTFDSEVELMKVARAHPKAKLVLRIATDDSKAVCELSVKFGATLRTSRLLLERAKELNIDVVGVSFHVGSGCTDPETFVQAISDARCVFDMGAEVGFSMYLLDIGGGFPGSEDVKLKFEEITGVINPALDKYFPSDSGVRIIAEPGRYYVASAFTLAVNIIAKKIVLKEQTGSDDEDESSEQTFMYYVNDGVYGSFNCILYDHAHVKPLLQKRPKPDEKYYSSSIWGPTCDGLDRIVERCDLPEMHVGDWMLFENMGAYTVAAASTFNGFQRPTIYYVMSGPAWQLMQQFQNPDFPP
notes: as for B4
B9: human ornithine decarboxylase Y331S/Y389D/R277S/D332E/R165E (enzyme)
chain: EEFDCHFLDEGFTAKDILDQKINEVSSSDDKDAFYVADLGDILKKHLRWLKALPRVTPFYAVKCNDSKAIVKTLAATGTGFDCASKTEIQLVQSLGVPPERIIYANPCKQVSQIKYAANNGVQMMTFDSEVELMKVARAHPKAKLVLRIATDDSKAVCELSVKFGATLRTSRLLLERAKELNIDVVGVSFHVGSGCTDPETFVQAISDARCVFDMGAEVGFSMYLLDIGGGFPGSEDVKLKFEEITGVINPALDKYFPSDSGVRIIAEPGSYYVASAFTLAVNIIAKKIVLKEQTGSDDEDESSEQTFMYYVNDGVYGSFNCILSEHAHVKPLLQKRPKPDEKYYSSSIWGPTCDGLDRIVERCDLPEMHVGDWMLFENMGADTVAAASTFNGFQRPTIYYVMSGPAWQLMQQFQNPDFPP
notes: ornithine decarboxylase (ODC), human; cDNA cloned into pQE30; also called [ODC_4M]+R165E
B10: human ornithine decarboxylase Y331S/Y389D/R277S (enzyme)
chain: EEFDCHFLDEGFTAKDILDQKINEVSSSDDKDAFYVADLGDILKKHLRWLKALPRVTPFYAVKCNDSKAIVKTLAATGTGFDCASKTEIQLVQSLGVPPERIIYANPCKQVSQIKYAANNGVQMMTFDSEVELMKVARAHPKAKLVLRIATDDSKAVCRLSVKFGATLRTSRLLLERAKELNIDVVGVSFHVGSGCTDPETFVQAISDARCVFDMGAEVGFSMYLLDIGGGFPGSEDVKLKFEEITGVINPALDKYFPSDSGVRIIAEPGSYYVASAFTLAVNIIAKKIVLKEQTGSDDEDESSEQTFMYYVNDGVYGSFNCILSDHAHVKPLLQKRPKPDEKYYSSSIWGPTCDGLDRIVERCDLPEMHVGDWMLFENMGADTVAAASTFNGFQRPTIYYVMSGPAWQLMQQFQNPDFPP
notes: as for B4
B11: human ornithine decarboxylase Y331S/Y389D/R277S/D332E/K169A (enzyme)
chain: EEFDCHFLDEGFTAKDILDQKINEVSSSDDKDAFYVADLGDILKKHLRWLKALPRVTPFYAVKCNDSKAIVKTLAATGTGFDCASKTEIQLVQSLGVPPERIIYANPCKQVSQIKYAANNGVQMMTFDSEVELMKVARAHPKAKLVLRIATDDSKAVCRLSVAFGATLRTSRLLLERAKELNIDVVGVSFHVGSGCTDPETFVQAISDARCVFDMGAEVGFSMYLLDIGGGFPGSEDVKLKFEEITGVINPALDKYFPSDSGVRIIAEPGSYYVASAFTLAVNIIAKKIVLKEQTGSDDEDESSEQTFMYYVNDGVYGSFNCILSEHAHVKPLLQKRPKPDEKYYSSSIWGPTCDGLDRIVERCDLPEMHVGDWMLFENMGADTVAAASTFNGFQRPTIYYVMSGPAWQLMQQFQNPDFPP
notes: ornithine decarboxylase (ODC), human; cDNA cloned into pQE30; also called [ODC_4M]+K169A
B12: human ornithine decarboxylase Y331S/Y389D (enzyme)
chain: EEFDCHFLDEGFTAKDILDQKINEVSSSDDKDAFYVADLGDILKKHLRWLKALPRVTPFYAVKCNDSKAIVKTLAATGTGFDCASKTEIQLVQSLGVPPERIIYANPCKQVSQIKYAANNGVQMMTFDSEVELMKVARAHPKAKLVLRIATDDSKAVCRLSVKFGATLRTSRLLLERAKELNIDVVGVSFHVGSGCTDPETFVQAISDARCVFDMGAEVGFSMYLLDIGGGFPGSEDVKLKFEEITGVINPALDKYFPSDSGVRIIAEPGRYYVASAFTLAVNIIAKKIVLKEQTGSDDEDESSEQTFMYYVNDGVYGSFNCILSDHAHVKPLLQKRPKPDEKYYSSSIWGPTCDGLDRIVERCDLPEMHVGDWMLFENMGADTVAAASTFNGFQRPTIYYVMSGPAWQLMQQFQNPDFPP
notes: as for B4
B13: human ornithine decarboxylase Y331S/Y389D/R277S/D332E/K294A (enzyme)
chain: EEFDCHFLDEGFTAKDILDQKINEVSSSDDKDAFYVADLGDILKKHLRWLKALPRVTPFYAVKCNDSKAIVKTLAATGTGFDCASKTEIQLVQSLGVPPERIIYANPCKQVSQIKYAANNGVQMMTFDSEVELMKVARAHPKAKLVLRIATDDSKAVCRLSVKFGATLRTSRLLLERAKELNIDVVGVSFHVGSGCTDPETFVQAISDARCVFDMGAEVGFSMYLLDIGGGFPGSEDVKLKFEEITGVINPALDKYFPSDSGVRIIAEPGSYYVASAFTLAVNIIAKAIVLKEQTGSDDEDESSEQTFMYYVNDGVYGSFNCILSEHAHVKPLLQKRPKPDEKYYSSSIWGPTCDGLDRIVERCDLPEMHVGDWMLFENMGADTVAAASTFNGFQRPTIYYVMSGPAWQLMQQFQNPDFPP
notes: ornithine decarboxylase (ODC), human; cDNA cloned into pQE30; also called [ODC_4M]+K294A

Biological target: the molecule itself
Test: AUC; sedimentation velocity, 0.3, 0.6 and 0.9 mg/ml protein in 50 mM Tris-HCl pH 7.5, 293 K, 42,000 rpm; global fit to a monomer-dimer equilibrium model (SEDPHAT); dimer to monomers
For B1, the Kd was 100 ± 1 nM.
Work on B2 yielded a Kd of 13300 ± 40 nM.
B3 showed a Kd of 52800 ± 500 nM.
B4 gave a Kd of 120 ± 12 nM.
Protein B5 has a Kd of 15900 ± 80 nM.
B6 showed a Kd of 25200 ± 30 nM.
Work on B7 yielded a Kd of 690 ± 5 nM.
In the case of B8, the Kd is reported as 110 ± 1 nM.
In the case of B9, the Kd is reported as 13500 ± 450 nM.
In the case of B10, the Kd is reported as 1030 ± 4 nM.
With B11 the Kd was 1490 ± 40 nM.
B12 gave a Kd of 160 ± 1 nM.
With B13 the Kd was 260 ± 60 nM.
